Experiment [1] deals with His-tagged canine IL-31 (interleukin 31) recombinant protein (canine). The experiment can be described thus: cell-based or functional assay.
Experiment [2] shares this target. The experiment can be described thus: BLI (Gator), biotinylated antibody on streptavidin probe, canine IL-31 as analyte.

B1: B2-H3K3-canIgGB (antibody, V domains shown)
VH: EVQLVESGGDLVKPGGSLRLSCVASGFTFSDAWMDWVRQAPGKGLQWVAEIRSRAESHATYYAESVKGRFTISRDDAKNTVYLQMNSLRAEDTAVYYCTPASTMITTGWFAYWGQGTLVTVSS
VL: EIVMTQTPLSLSVSPGELATISCRASQNISVYLHWYQQKPGQAPKVLIKYVSQSISGVPSRFSGSGSGSDFTLTISSVEAEDVGVYYCQNGHSFPYTFGQGTKLEIKR
For the molecule B1, in experiment [1], the pSTAT IC50 (µg/mL) came to 7.4 µg/mL. Also, in experiment [2], the Kd (commonly the free concentration of one partner at which half of the binding sites on the other are occupied at equilibrium, for simple one-to-one binding) came out at 3.16 nM; the dissociation rate constant (koff) (commonly a measure of how fast the partners let go of each other) amounted to 0.000381 s⁻¹; the kon (as a rule, the rate constant with which the complex forms) came out at 121000 M⁻¹ s⁻¹.

B2: 6465-H2K1-canIgGB (antibody, V domains shown)
VH: EVQLVESGGDLVKPGGSLRLSCVASGYSFTNYYLYWVRQAPGKGLQWLGELNPRNGGTNLNAKFKTRFTISVDKAKNTAYLQMNSLRAEDTAVYYCTRGGTTVVVRDVMDFWGQGTLVTVSS
VL: EIVLTQTPLSLAVTPGELATISCRASESVDSYGNSFMHWYLQKPGQTPRLLIYRASNLESGVSDRFSGSGSRTDFTLKISRVEAEDVGVYYCQQSNEDPYTFGQGTKLEIKR
As to B2, the pSTAT IC50 (µg/mL) in experiment [1] was 7.3 µg/mL. For the same molecule, in experiment [2], the Kd was 3.37 nM, the off-rate constant (koff) is 0.00171 s⁻¹ and the kon is 508000 M⁻¹ s⁻¹.

B3: 6465-H2K2-canIgGB (antibody, V domains shown)
VH: EVQLVESGGDLVKPGGSLRLSCVASGYSFTNYYLYWVRQAPGKGLQWLGELNPRNGGTNLNAKFKTRFTISVDKAKNTAYLQMNSLRAEDTAVYYCTRGGTTVVVRDVMDFWGQGTLVTVSS
VL: DIVLTQTPLSLSVSPGEPASISCRASESVDSYGNSFMHWYRQKPGQSPQLLIYRASNLESGVPDRFSGSGSRTDFTLRISRVEADDAGVYYCQQSNEDPYTFGQGTKLEIKR
Take B3: in experiment [1], the pSTAT IC50 (µg/mL) was found to be 7.3 µg/mL. Further, in experiment [2], the dissociation constant (Kd) came to 17.8 nM, the koff amounted to 0.00166 s⁻¹ and the kon was determined as 93200 M⁻¹ s⁻¹.

B4: 6465-H3K1-canIgGB (antibody, V domains shown)
VH: EVQLVESGGDLVKPGGSLRLSCVASGYSFTNYYLYWVRQAPGKGLEWVAELNPRNGGTNLNAKFKTRFTISRDNAKNMAYLQMNSLRAEDTAVYYCTRGGTTVVVRDVMDFWGQGTLVTVSS
VL: EIVLTQTPLSLAVTPGELATISCRASESVDSYGNSFMHWYLQKPGQTPRLLIYRASNLESGVSDRFSGSGSRTDFTLKISRVEAEDVGVYYCQQSNEDPYTFGQGTKLEIKR
Take B4: in experiment [1], the pSTAT IC50 (µg/mL) is 7.8 µg/mL. In experiment [2], the Kd was found to be 5.75 nM, the koff worked out at 0.00121 s⁻¹ and the kon is 211000 M⁻¹ s⁻¹.

B5: 6465-H3K2-canIgGB (antibody, V domains shown)
VH: EVQLVESGGDLVKPGGSLRLSCVASGYSFTNYYLYWVRQAPGKGLEWVAELNPRNGGTNLNAKFKTRFTISRDNAKNMAYLQMNSLRAEDTAVYYCTRGGTTVVVRDVMDFWGQGTLVTVSS
VL: DIVLTQTPLSLSVSPGEPASISCRASESVDSYGNSFMHWYRQKPGQSPQLLIYRASNLESGVPDRFSGSGSRTDFTLRISRVEADDAGVYYCQQSNEDPYTFGQGTKLEIKR
Consider B5, for which the pSTAT IC50 (µg/mL) in experiment [1] stood at 8.2 µg/mL. In addition, in experiment [2], the Kd amounted to 6.95 nM, the koff is 0.00361 s⁻¹ and the kon was determined as 519000 M⁻¹ s⁻¹.

B6: 6465-H2K3-canIgGB (antibody, V domains shown)
VH: EVQLVESGGDLVKPGGSLRLSCVASGYSFTNYYLYWVRQAPGKGLQWLGELNPRNGGTNLNAKFKTRFTISVDKAKNTAYLQMNSLRAEDTAVYYCTRGGTTVVVRDVMDFWGQGTLVTVSS
VL: DIVMTQTPLSLSVSPGEPASISCRASESVDSYGNSFMHWYRQKPGQSPQLLIYRASNLESGVPDRFSGSGSGTDFTLRISRVEADDAGVYYCQQSNEDPYTFGQGTKLEIKR
For B6, the pSTAT IC50 (µg/mL) in experiment [1] was 7.6 µg/mL. Further, in experiment [2], the Kd stood at 4.99 nM, the koff stood at 0.001 s⁻¹ and the kon was 201000 M⁻¹ s⁻¹.

B7: 6465-H1K2-canIgGB (antibody, V domains shown)
VH: EVQLVESGGDLVKPGGSLRLSCVASGYSFTNYYLYWVRQAPGKGLEWVGELNPRNGGTNLNAKFKTRFTISVDKAKNMAYLQMNSLRAEDTAVYYCTRGGTTVVVRDVMDFWGQGTLVTVSS
VL: DIVLTQTPLSLSVSPGEPASISCRASESVDSYGNSFMHWYRQKPGQSPQLLIYRASNLESGVPDRFSGSGSRTDFTLRISRVEADDAGVYYCQQSNEDPYTFGQGTKLEIKR
Consider B7, for which the pSTAT IC50 (µg/mL) in experiment [1] amounted to 7.9 µg/mL. In experiment [2], the Kd was determined as 6.54 nM, the koff amounted to 0.00088 s⁻¹ and the kon worked out at 135000 M⁻¹ s⁻¹.

B8: 6465-H1K3-canIgGB (antibody, V domains shown)
VH: EVQLVESGGDLVKPGGSLRLSCVASGYSFTNYYLYWVRQAPGKGLEWVGELNPRNGGTNLNAKFKTRFTISVDKAKNMAYLQMNSLRAEDTAVYYCTRGGTTVVVRDVMDFWGQGTLVTVSS
VL: DIVMTQTPLSLSVSPGEPASISCRASESVDSYGNSFMHWYRQKPGQSPQLLIYRASNLESGVPDRFSGSGSGTDFTLRISRVEADDAGVYYCQQSNEDPYTFGQGTKLEIKR
With B8, in experiment [1], the pSTAT IC50 (µg/mL) came out at 7.4 µg/mL. Also, in experiment [2], the Kd was determined as 2.5 nM, the off-rate constant (koff) amounted to 0.00145 s⁻¹ and the kon is 579000 M⁻¹ s⁻¹.

The values are drawn from patent EP4745156A1.
